# Data from IntAct's records for PubMed 23681068.
# B1: RNA-binding protein FUS (Homo sapiens), P35637 (parent)
# chain: MASNDYTQQATQSYGAYPTQPGQGYSQQSSQPYGQQSYSGYSQSTDTSGYGQSSYSSYGQSQNTGYGTQSTPQGYGSTGGYGSSQSSQSSYGQQSSYPGYGQQPAPSSTSGSYGSSSQSSSYGQPQSGSYSQQPSYGGQQQSYGQQQSYNPPQGYGQQNQYNSSSGGGGGGGGGGNYGQDQSSMSSGGGSGGGYGNQDQSGGGGSGGYGQQDRGGRGRGGSGGGGGGGGGGYNRSSGGYEPRGRGGGRGGRGGMGGSDRGGFNKFGGPRDQGSRHDSEQDNSDNNTIFVQGLGENVTIESVADYFKQIGIIKTNKKTGQPMINLYTDRETGKLKGEATVSFDDPPSAKAAIDWFDGKEFSGNPIKVSFATRRADFNRGGGNGRGGRGRGGPMGRGGYGGGGSGGGGRGGFPSGGGGGGGQQRAGDWKCPNPTCENMNFSWRNECNQCKAPKPDGPGGGPGGSHMGGNYGDDRRGGRGGYDRGGYRGRGGDRGGFRGGRGGGDRGGFGPGKMDSRGEHRQDRRERPY
# Variants of: B1
# Settings: with smn_mouse Smn1, P97801
# smn_mouse Smn1, P97801, sequence (P97801 whole entry): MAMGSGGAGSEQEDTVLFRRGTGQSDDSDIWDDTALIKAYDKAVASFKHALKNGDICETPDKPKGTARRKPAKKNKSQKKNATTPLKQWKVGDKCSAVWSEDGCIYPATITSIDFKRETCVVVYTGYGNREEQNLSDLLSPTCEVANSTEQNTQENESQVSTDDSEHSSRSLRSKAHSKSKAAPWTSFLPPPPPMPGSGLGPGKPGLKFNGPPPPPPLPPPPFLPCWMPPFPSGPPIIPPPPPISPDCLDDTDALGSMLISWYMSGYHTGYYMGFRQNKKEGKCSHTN
row,effect of a mutation on the interaction,Variant
1,increasing interaction strength,P525L
2,increasing interaction strength,R521C
3,increasing interaction strength,R521H

# Variants of: B1
# Settings: with smn_mouse Smn1, P97801
# Remark: another data set of the same source
row,effect of a mutation on the interaction,Variant
1,with no effect,R521C
